The assay has as its target death receptor 5 (DR5) (human (endogenous in MB231)), O14763. Put plainly: co-IP + pull-down. The conditions noted are these: remark: other sources report otherwise.

B1: caspase-8, Q14790 1-479 (enzyme)
chain: MDFSRNLYDIGEQLDSEDLASLKFLSLDYIPQRKQEPIKDALMLFQRLQEKRMLEESNLSFLKELLFRINRLDLLITYLNTRKEEMERELQTPGRAQISAYRVMLYQISEEVSRSELRSFKFLLQEEISKCKLDDDMNLLDIFIEMEKRVILGEGKLDILKRVCAQINKSLLKIINDYEEFSKERSSSLEGSPDEFSNGEELCGVMTISDSPREQDSESQTLDKVYQMKSKPRGYCLIINNHNFAKAREKVPKLHSIRDRNGTHLDAGALTTTFEELHFEIKPHDDCTVEQIYEILKIYQLMDHSNMDCFICCILSHGDKGIIYGTDGQEAPIYELTSQFTGLKCPSLAGKPKVFFIQACQGDNYQKGIPVETDSEEQPYLEMDLSSPQTRYIPDEADFLLGMATVNNCVSYRNPAEGTWYIQSLCQSLRERCPRGDDILTILTEVNYEVSNKDDKKNMGKQMPQPTFTLRKKLVFPSD
Consider B1, for which the ratio of caspase-8/DR5 in DR5 precipitates, Axl knocked down relative to siNEG amounted to 1.73 fold.

Source of the values: publication PMC4753803.
